For 48 variants, abundance fitness results are on record in the Human Domainome abundance scans (Beltran et al. 2025).

± gives the uncertainty stated by the source.

To fix the notation:
B1: SH3 and PX domain-containing protein 2B, residues 155 to 209; numbered along this chain, A1X283 (parent)
chain: EQYVVVANYQKQESSEISLSVGQVVDIIEKNESGWWFVSTAEEQGWVPATCLEGQ

In the data set the parent is B1. Briefly: abundance fitness (aPCA) (normalised: wild type 0, dead -1); higher = more abundant; growth selection in yeast, the domain comes from the species named. Conditions: Homo sapiens.
EQYVVVANYQKQESSEISLSVCQVVDIIEKNESGWWFVSTAEEQGWVPATCLEGQ: the abundance fitness is -0.638 ± 0.097.
For EQYVVVANYQKQESSEISLSVEQVVDIIEKNESGWWFVSTAEEQGWVPATCLEGQ the value was -0.673 ± 0.11; for EQYVVVANYQKQESSEISLSVDQVVDIIEKNESGWWFVSTAEEQGWVPATCLEGQ, -0.246 ± 0.14; for EQYVVVANYQKQESSEISLSVAQVVDIIEKNESGWWFVSTAEEQGWVPATCLEGQ, -0.5 ± 0.078.
The same measure for EQYVVVANYQKQESSEISLSVPQVVDIIEKNESGWWFVSTAEEQGWVPATCLEGQ: -0.83 ± 0.15; for EQYVVVANYQKQESSEISLSVMQVVDIIEKNESGWWFVSTAEEQGWVPATCLEGQ: -0.617 ± 0.11.
With EQYVVVANYQKQESSEISLSVFQVVDIIEKNESGWWFVSTAEEQGWVPATCLEGQ, the abundance fitness was -0.91 ± 0.26.
For EQYVVVANYQKQESSEISLSVTQVVDIIEKNESGWWFVSTAEEQGWVPATCLEGQ, the abundance fitness is -0.588 ± 0.12.
The same measure for EQYVVVANYQKQESSEISLSVQQVVDIIEKNESGWWFVSTAEEQGWVPATCLEGQ: -0.512 ± 0.16; for EQYVVVANYQKQESSEISLSVIQVVDIIEKNESGWWFVSTAEEQGWVPATCLEGQ: -1.05 ± 0.21; for EQYVVVANYQKQESSEISLSVNQVVDIIEKNESGWWFVSTAEEQGWVPATCLEGQ: -0.33 ± 0.16.
As for EQYVVVANYQKQESSEISLSVYQVVDIIEKNESGWWFVSTAEEQGWVPATCLEGQ, the abundance fitness is -0.498 ± 0.19.
Consider EQYVVVANYQKQESSEISLSVRQVVDIIEKNESGWWFVSTAEEQGWVPATCLEGQ, for which the abundance fitness is -0.549 ± 0.078.
Consider EQYVVVANYQKQESSEISLSVLQVVDIIEKNESGWWFVSTAEEQGWVPATCLEGQ, for which the abundance fitness was -0.921 ± 0.11.
As for EQYVVVANYQKQESSEISLSVHQVVDIIEKNESGWWFVSTAEEQGWVPATCLEGQ, the abundance fitness is -0.581 ± 0.19.
As to EQYVVVANYQKQESSEISLSVKQVVDIIEKNESGWWFVSTAEEQGWVPATCLEGQ, the abundance fitness is -0.789 ± 0.14.
For EQYVVVANYQKQESSEISLSVVQVVDIIEKNESGWWFVSTAEEQGWVPATCLEGQ, the abundance fitness was -0.945 ± 0.097.
The same measure for EQYVVVANYQKQESSEISLSVWQVVDIIEKNESGWWFVSTAEEQGWVPATCLEGQ: -0.834 ± 0.11; for EQYVVVANYQKQESSEISLSVSQVVDIIEKNESGWWFVSTAEEQGWVPATCLEGQ: -0.503 ± 0.081.
With EQYVVVANYQKQESSEISLAVGQVVDIIEKNESGWWFVSTAEEQGWVPATCLEGQ, the abundance fitness is -0.13 ± 0.098.
In the case of EQYVVVANYQKQESSEISLQVGQVVDIIEKNESGWWFVSTAEEQGWVPATCLEGQ, the abundance fitness was -0.126 ± 0.17.
For the variant EQYVVVANYQKQESSEISLLVGQVVDIIEKNESGWWFVSTAEEQGWVPATCLEGQ, the abundance fitness amounted to 0.015 ± 0.077.
Consider EQYVVVANYQKQESSEISLHVGQVVDIIEKNESGWWFVSTAEEQGWVPATCLEGQ, for which the abundance fitness was -0.01 ± 0.13.
In the case of EQYVVVANYQKQESSEISLCVGQVVDIIEKNESGWWFVSTAEEQGWVPATCLEGQ, the abundance fitness is -0.209 ± 0.11.
On to EQYVVVANYQKQESSEISLVVGQVVDIIEKNESGWWFVSTAEEQGWVPATCLEGQ, for which the abundance fitness is -0.077 ± 0.079.
As for EQYVVVANYQKQESSEISLYVGQVVDIIEKNESGWWFVSTAEEQGWVPATCLEGQ, the abundance fitness is -0.143 ± 0.11.
As for EQYVVVANYQKQESSEISLEVGQVVDIIEKNESGWWFVSTAEEQGWVPATCLEGQ, the abundance fitness is 0.09 ± 0.21.
As to EQYVVVANYQKQESSEISLFVGQVVDIIEKNESGWWFVSTAEEQGWVPATCLEGQ, the abundance fitness was -0.085 ± 0.1.
The same measure for EQYVVVANYQKQESSEISLPVGQVVDIIEKNESGWWFVSTAEEQGWVPATCLEGQ: -0.536 ± 0.13; for EQYVVVANYQKQESSEISLRVGQVVDIIEKNESGWWFVSTAEEQGWVPATCLEGQ: -0.082 ± 0.074; for EQYVVVANYQKQESSEISLWVGQVVDIIEKNESGWWFVSTAEEQGWVPATCLEGQ: -0.165 ± 0.12.
EQYVVVANYQKQESSEISLKVGQVVDIIEKNESGWWFVSTAEEQGWVPATCLEGQ: the abundance fitness was -0.075 ± 0.11.
For EQYVVVANYQKQESSEISLGVGQVVDIIEKNESGWWFVSTAEEQGWVPATCLEGQ, the abundance fitness was -0.239 ± 0.079.
With EQYVVVANYQKQESSEISLTVGQVVDIIEKNESGWWFVSTAEEQGWVPATCLEGQ, the abundance fitness was -0.055 ± 0.11.
For EQYVVVANYQKQESSEISLDVGQVVDIIEKNESGWWFVSTAEEQGWVPATCLEGQ the value was -0.317 ± 0.16; for EQYVVVANYQKQESSEISTSVGQVVDIIEKNESGWWFVSTAEEQGWVPATCLEGQ, -0.604 ± 0.089; for EQYVVVANYQKQESSEISCSVGQVVDIIEKNESGWWFVSTAEEQGWVPATCLEGQ, -0.035 ± 0.13.
The same measure for EQYVVVANYQKQESSEISDSVGQVVDIIEKNESGWWFVSTAEEQGWVPATCLEGQ: -0.894 ± 0.28; for EQYVVVANYQKQESSEISESVGQVVDIIEKNESGWWFVSTAEEQGWVPATCLEGQ: -0.768 ± 0.15; for EQYVVVANYQKQESSEISQSVGQVVDIIEKNESGWWFVSTAEEQGWVPATCLEGQ: -0.865 ± 0.16.
The same measure for EQYVVVANYQKQESSEISNSVGQVVDIIEKNESGWWFVSTAEEQGWVPATCLEGQ: -0.966 ± 0.16.
EQYVVVANYQKQESSEISKSVGQVVDIIEKNESGWWFVSTAEEQGWVPATCLEGQ: the abundance fitness is -0.957 ± 0.14.
Turning to EQYVVVANYQKQESSEISFSVGQVVDIIEKNESGWWFVSTAEEQGWVPATCLEGQ, the abundance fitness was -0.441 ± 0.18.
EQYVVVANYQKQESSEISGSVGQVVDIIEKNESGWWFVSTAEEQGWVPATCLEGQ: the abundance fitness was -0.838 ± 0.093.
On to EQYVVVANYQKQESSEISASVGQVVDIIEKNESGWWFVSTAEEQGWVPATCLEGQ, for which the abundance fitness is -0.482 ± 0.1.
With EQYVVVANYQKQESSEISYSVGQVVDIIEKNESGWWFVSTAEEQGWVPATCLEGQ, the abundance fitness was -0.665 ± 0.45.
The same measure for EQYVVVANYQKQESSEISMSVGQVVDIIEKNESGWWFVSTAEEQGWVPATCLEGQ: -0.545 ± 0.15; for EQYVVVANYQKQESSEISISVGQVVDIIEKNESGWWFVSTAEEQGWVPATCLEGQ: -0.149 ± 0.17.
